The source of these data is US20230357429A1 (JANUX THERAPEUTICS, published 2023).

Substitutions are numbered along the chain they refer to. In names and notes the source's numbering stands. Where no end group is shown, it is not given here.

The target in assay [1] is T1, Human TROP2 ECD (31-274 AA), biotinylated (human, UniProt P09758 31-274, biotinylated (site not stated)).
T1 construct: also called tumor-associated calcium signal transducer 2; Human TROP2-biotin
T1 sequence: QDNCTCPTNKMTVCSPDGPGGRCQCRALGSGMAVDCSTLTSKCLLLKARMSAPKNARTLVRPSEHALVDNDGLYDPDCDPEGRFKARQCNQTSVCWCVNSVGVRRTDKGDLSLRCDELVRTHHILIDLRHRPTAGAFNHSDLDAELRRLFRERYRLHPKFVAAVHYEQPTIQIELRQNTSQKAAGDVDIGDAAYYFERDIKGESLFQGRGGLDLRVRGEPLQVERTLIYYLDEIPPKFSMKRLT
Description: ELISA on immobilized TROP2.

The target of assay [2] is T1, Human TROP2 ECD (31-274 AA), …. Nature of the assay: ELISA on immobilized TROP2. This is another data set of the same source. (ELISA stands for enzyme-linked immunosorbent assay.)
The target in assay [3] is T2, TCE-10 (anti-CD3 scFv R100A; anti-TROP2 wt).
T2 construct: scFv on the Fab heavy chain; also called TCE-10 (R100A)
Nature of the assay: competition ELISA, TCE on captured CD3.

In assay [4] the target is T3, TCE-11 (anti-CD3 scFv H101A; anti-TROP2 wt).
T3 construct: scFv on the Fab heavy chain; also called TCE-11 (H101A)
Description: competition ELISA, TCE on captured CD3.

For assay [5], the target named is T4, TCE-13 (anti-CD3 scFv N103A; anti-TROP2 wt).
T4 construct: scFv on the Fab heavy chain; also called TCE-13 (N103A)
Nature of the assay: competition ELISA, TCE on captured CD3.

Assay [6] has as its target T5, TCE-14 (anti-CD3 scFv F104A; anti-TROP2 wt).
T5 construct: scFv on the Fab heavy chain; also called TCE-14 (F104A)
Nature of the assay: competition ELISA, TCE on captured CD3.

Assay [7] deals with T6, TCE-20 (anti-CD3 scFv S110A; anti-TROP2 wt).
T6 construct: scFv on the Fab heavy chain; also called TCE-20 (S110A)
Description: competition ELISA, TCE on captured CD3.

In assay [8] the target is T7, TCE-22 (anti-CD3 scFv W112A; anti-TROP2 wt).
T7 construct: scFv on the Fab heavy chain; also called TCE-22 (W112A)
Description: competition ELISA, TCE on captured CD3.

The target of assay [9] is T8, TCE-31 (anti-CD3 scFv W238A; anti-TROP2 wt).
T8 construct: scFv on the Fab heavy chain; also called TCE-31 (W238A)
Description: competition ELISA, TCE on captured CD3.

In assay [10] the target is T9, TCE-33 (anti-CD3 scFv F240A; anti-TROP2 wt).
T9 construct: scFv on the Fab heavy chain; also called TCE-33 (F240A)
Description: competition ELISA, TCE on captured CD3.

Assay [11] concerns the target T10, TCE-1 (anti-CD3 scFv wt; anti-TROP2 Fab wt).
T10 construct: anti-CD3 scFv fused to the N-terminus of the anti-TROP2 Fab heavy chain; also called TCE-1 (wt)
Description: competition ELISA: peptide titrated and pre-incubated with a constant concentration of TCE-1, binding of TCE-1 to plate-bound biotinylated CD3 detected.

A further assay has as its target T11, TBD-1 wt.
T11 construct: Fab; the heavy chain entry is VH-CH1; also called wild-type anti-TROP2 Fab (hRS7); TROP2 Fab
Nature of the assay: competition ELISA: peptide titrated and pre-incubated with a constant concentration of TBD-1, then added to plate-bound biotinylated TROP2; blocked ligand TROP2 (2.m7).

Assay [12] concerns the target T1, Human TROP2 ECD (31-274 AA), …. Nature of the assay: ELISA on immobilized TROP2. This is another data set of the same source.
In the next assay the target is T12, Human TROP2 Full length (human, UniProt P09758 31-323).
T12 sequence: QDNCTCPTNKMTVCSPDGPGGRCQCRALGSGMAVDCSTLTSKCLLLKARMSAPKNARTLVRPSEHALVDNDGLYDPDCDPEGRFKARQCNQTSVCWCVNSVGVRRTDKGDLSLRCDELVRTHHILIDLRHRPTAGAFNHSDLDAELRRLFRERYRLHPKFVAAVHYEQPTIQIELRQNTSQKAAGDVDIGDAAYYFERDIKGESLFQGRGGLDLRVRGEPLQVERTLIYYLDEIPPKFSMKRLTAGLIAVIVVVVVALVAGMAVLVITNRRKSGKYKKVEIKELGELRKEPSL
Description: cell-based or functional assay.

In assay [13] the target is T1, Human TROP2 ECD (31-274 AA), …. Nature of the assay: ELISA, ratio of EC50 to that of TBD-1 wt.
Assay [14] has the same target. Nature of the assay: ELISA, biotinylated TROP2 ECD on neutravidin plate, Fab titrated.
The target is the same in assay [15]. Nature of the assay: ELISA: biotinylated TROP2 captured on neutravidin plate, Fab titrated, HRP secondary antibody.

B1: PC-7 (bispecific antibody)
light: not shown
heavy: GGVDFCGLYHWPICYQGGGGSGGLSGRSDAGSPLGLAGSGGSQVQLQQSGSELKKPGASVKVSCKASGYTFTNYGMNWVKQAPGQGLKWMGWINTYTGEPTYTDDFKGRFAFSLDTSVSTAYLQISSLKADDTAVYFCARGGFGSSYWYFDVWGQGSLVTVSSASTKGPSVFPLAPSSKSTSGGTAALGCLVKDYFPEPVTVSWNSGALTSGVHTFPAVLQSSGLYSLSSVVTVPSSSLGTQTYICNVNHKPSNTKVDKKVEPKSC
notes: anti-TROP2 wt
One may read the EC50 as the concentration needed to bring the measured effect to its halfway point. Low readings indicate a more potent agent, high ones a less potent agent. B1 returned a half-maximal effective concentration (EC50) in assay [1] of 24.6 nM.

B2: PC-6 (bispecific antibody)
light: GGVDFCGLYHWPICYQGGGGSGGLSGRSDAGSPLGLAGSGGSDIQLTQSPSSLSASVGDRVSITCKASQDVSIAVAWYQQKPGKAPKLLIYSASYRYTGVPDRFSGSGSGTDFTLTISSLQPEDFAVYYCQQHYITPLTFGAGTKVEIKRTVAAPSVFIFPPSDEQLKSGTASVVCLLNNFYPREAKVQWKVDNALQSGNSQESVTEQDSKDSTYSLSSTLTLSKADYEKHKVYACEVTHQGLSSPVTKSFNRGEC
heavy: not shown
notes: anti-TROP2 wt
Regarding B2, the EC50 is 32.9 nM in assay [1] and 16.6 nM in assay [2].

B3: PC-28 (bispecific antibody)
light: B2 light with V3I, G7M, H10N, Y15A, Q16G
heavy: not shown
notes: anti-TROP2 wt
For B3, the EC50 in [2] was 25 nM.

B4: PC-29 (bispecific antibody)
light: B2 light
heavy: not shown
notes: anti-TROP2 wt
Consider B4, for which, in [2], a half-maximal response (EC50) required 16.3 nM. Against the preceding molecule, the EC50 is about 1.5-fold lower.

B5: PC-5 (bispecific antibody)
light: B2 light with V3I, G7M, H10N, Y15A, Q16G
heavy: not shown
notes: anti-TROP2 wt
Consider B5, for which the EC50 was 24.5 nM in [1] and 9.15 nM in [2].

B6: Peptide-74 (peptide)
peptide: ASQCLGPEWEVCPY
modifications: cysteine pairing not given here; also: biotinylated, site not given here
notes: mask peptide for the CD3 scFv
In general, IC50 refers to the concentration that inhibits the measured activity by half. A high value points to a need for much substance. Turning to B6, the IC50 stood at 16100 nM in [3]; 1110 nM in assay [4]; 10600 nM in [5]; 2470 nM in [6]; 86600 nM in [7]; 75400 nM in assay [8]. Moreover, the IC50 in assay [9] came out at 33800 nM; in [10] it was 3080 nM. Besides, the binding result in assay [11] was “binds”.

B7: Peptide-16 (peptide)
peptide: IDFCLLYDWPVCAS
B7: the “IC50 (read off the curve)” value with TBD-1 wt is roughly 3000 nM.

B8: PC-11 (bispecific antibody)
light: not shown
heavy: GGVDFCGLYHWPICYQGGGGSSGGSAAGLLAPPGGLSGRSDAGGGGSQVQLQQSGSELKKPGASVKVSCKASGYTFTNYGMNWVKQAPGQGLKWMGWINTYTGEPTYTDDFKGRFAFSLDTSVSTAYLQISSLKADDTAVYFCARGGFGSSYWYFAVWGQGSLVTVSSASTKGPSVFPLAPSSKSTSGGTAALGCLVKDYFPEPVTVSWNSGALTSGVHTFPAVLQSSGLYSLSSVVTVPSSSLGTQTYICNVNHKPSNTKVDKKVEPKSC
notes: anti-TROP2 D109A
Take B8: it took 379 nM to reach a half-maximal effect in assay [12] (EC50).

B9: TCE-39 (bispecific antibody)
light: DIQLTQSPSSLSASVGDRVSITCKASQDVSIAVAWYQQKPGKAPKLLIYSASYRYTGVPDRFSGSGSGTDFTLTISSLQPEDFAVYYCQQHYITPLTFGAGTKVEIKRTVAAPSVFIFPPSDEQLKSGTASVVCLLNNFYPREAKVQWKVDNALQSGNSQESVTEQDSKDSTYSLSSTLTLSKADYEKHKVYACEVTHQGLSSPVTKSFNRGEC
heavy: EVQLVESGGGLVQPGGSLKLSCAASGFTFNKYAMNWVRQASGKGLEWVGRIRSKYNNYATYYADSVKDRFTISRDDSKNTAYLQMNSLKTEDTAVYYCVRHGNFGNSYISYWAYWGQGTLVTVSSGGGGSGGGGSGGGGSQTVVTQEPSFSVSPGGTVTLTCRSSTGAVTSGNYANWVQQTPGQAPRGLIGGTKFLAPGVPDRFSGSILGNKAALTITGAQADDESDYYCVLWYSNRWVFGGGTKLTVLGGGGSQVQLQQSGSELKKPGASVKVSCKASGYTFTNYGMNWVKQAPGQGLKWMGWINTYTGEPTYTDDFKGRFAFSLDTSVSTAYLQISSLKADDTAVYFCARGGFGSSYWYADVWGQGSLVTVSSASTKGPSVFPLAPSSKSTSGGTAALGCLVKDYFPEPVTVSWNSGALTSGVHTFPAVLQSSGLYSLSSVVTVPSSSLGTQTYICNVNHKPSNTKVDKKVEPKSC
As for B9, in the assay with Human TROP2 Full length, the “HCT116 Cytotoxicity EC50 (pM)” value was 73.2 pM.

B10: TCE-49 (bispecific antibody)
light: B9 light
heavy: not shown
In the case of B10, the “H292 Cytotoxicity EC50 (pM)” value in the assay with Human TROP2 Full length worked out at 3.9 pM.

B11: TBD-18 (anti-TROP2 Fab, HC Y105A) (Fab, V domains shown)
VH: QVQLQQSGSELKKPGASVKVSCKASGYTFTNYGMNWVKQAPGQGLKWMGWINTYTGEPTYTDDFKGRFAFSLDTSVSTAYLQISSLKADDTAVYFCARGGFGSSAWYFDVWGQGSLVTVSS
VL: DIQLTQSPSSLSASVGDRVSITCKASQDVSIAVAWYQQKPGKAPKLLIYSASYRYTGVPDRFSGSGSGTDFTLTISSLQPEDFAVYYCQQHYITPLTFGAGTKVEIKR
With B11, the “Fold shift in EC50 relative to wt” value in [13] was found to be 4000 fold. Also, the 50% effective concentration (EC50) in [14] and in assay [15] was 801 nM each time.

B12: Peptide-67 (peptide)
peptide: VYCGPEFDESVGCM
modifications: cysteine pairing not given here; also: biotinylated, site not given here
notes: mask peptide for the CD3 scFv
B12: the IC50 in assay [3] was determined as 18600 nM; in assay [4], 2820 nM; in assay [5] it was 3360 nM; in assay [6], 240 nM; in [7], 1320 nM; in [8] it was 38500 nM. For the same molecule, the IC50 in [9] turned out to be 21600 nM; in assay [10] it was 1250 nM. For the same molecule, the binding result in assay [11] is on record as “binds”.

B13: Peptide-72 (peptide)
peptide: AYCGPEFDESVGCM
modifications: cysteine pairing not given here; also: biotinylated, site not given here
notes: mask peptide for the CD3 scFv
B13: the IC50 in assay [3] stood at 45600 nM; in assay [4], 790 nM; in [5] it was 3960 nM; in assay [6], 320 nM; in assay [7] it was 3650 nM; in [8], 40200 nM. The IC50 in assay [9] is 29900 nM; in [10] it was 2700 nM. In addition, the “IC50 (read off the curve)” value in assay [11] was roughly 300 nM.

B14: TCE-2 (bispecific antibody)
light: not shown
heavy: QVQLQQSGSELKKPGASVKVSCKASGYTFTNYGMNWVKQAPGQGLKWMGWINTYTGEPTYTDDFKGRFAFSLDTSVSTAYLQISSLKADDTAVYFCARGGFGSSYWYFDVWGQGSLVTVSSASTKGPSVFPLAPSSKSTSGGTAALGCLVKDYFPEPVTVSWNSGALTSGVHTFPAVLQSSGLYSLSSVVTVPSSSLGTQTYICNVNHKPSNTKVDKKVEPKSC
B14 displayed an EC50 in [1] of 0.13 nM.
